Measurements: patent US12466853B2, “Selective targeting of apoptosis proteins by structurally-stabilized and/or cysteine-reactive NOXA peptides” (priority 2017, dated 2025)
Changes are numbered by the printed parent chain. Positions of bridges follow the written chain, without caps; N, C: chain ends. Non-standard residues stand in square brackets, D forms with d. No end group written: not given here. R8 = C=CCCCCCC[C@@](C)(N)C(=O)O; S5 = C=CCCC[C@](C)(N)C(=O)O

Tests used:
[1] = target: T1, full-length BFL-1 (Homo sapiens, UniProt Q16548); assay: Covalent crosslinking to full-length BFL-1, recombinant and HA-tagged expressed in 293T cells; type: binding; settings: recombinant and expressed in 293T cells; somewhat reduced efficiency vs C-terminally truncated species
T1 construct: Recombinant full-length BFL-1 (aa-175) containing an N-terminal hexahistidine tag; made in house
T1 sequence (Q16548 1-175): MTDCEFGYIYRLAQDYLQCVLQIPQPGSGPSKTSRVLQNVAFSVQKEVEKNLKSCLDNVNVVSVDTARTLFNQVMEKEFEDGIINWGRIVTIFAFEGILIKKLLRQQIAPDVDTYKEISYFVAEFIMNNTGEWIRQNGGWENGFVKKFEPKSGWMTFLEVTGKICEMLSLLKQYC
From the text: We confirmed that both of our lead constructs could covalently crosslink to full-length BFL-1 protein, which bears a C-terminal helix that could potentially compete with D-NA-NOXA SAHBs for interaction at the canonical BH3-binding pocket in cancer cells. We generated recombinant full-length BFL-1 and expressed HA-tagged full-length BFL-1 in 293T cells, and then conducted crosslinking analyses in vitro and in treated cells, respectively.
Recombinant full-length BFL-1 (aa-175) containing an N-terminal hexahistidine tag was cloned into the PTYB1 vector (New England Biolabs) and purified as above except for the addition of a chitin affinity chromatography and DTT elution step. Protein purity and identity was confirmed by Coomassie staining and western blot analysis using a mouse monoclonal anti-His6 tag antibody (Abcam).
His-BFL-1ΔC C4S/C19S protein (5 μM) was pre-treated with 10 mM DTT in 50 mM Tris (pH 8.0) and 100 mM NaCl for 30 min at room temperature (final volume […]) and then combined with a 10:1 molar ratio of cysteine-reactive NOXA SAHB for an additional 1-hr incubation at room temperature. The samples were then boiled in 3× loading buffer with DTT and electrophoresed on 12% Bis-Tris gel, then subjected to Coomassie staining.

[2] = target: T2, His-BFL-1ΔC (Homo sapiens, UniProt Q16548); assay: Streptavidin pulldown from recombinant protein mixture, BFL-1; type: binding; settings: equimolar mixture of recombinant MCL-1, BCL-XL, BFL-1 and biotinylated SAHB, silver stain
T2 construct: Recombinant anti-apoptotic BFL-1ΔC (aa 1-151) and its cysteine to serine mutants were cloned into PET17b; made in house; host or cells: Escherichia coli LOBSTR BL21(DE3)
T2 sequence (Q16548 1-151): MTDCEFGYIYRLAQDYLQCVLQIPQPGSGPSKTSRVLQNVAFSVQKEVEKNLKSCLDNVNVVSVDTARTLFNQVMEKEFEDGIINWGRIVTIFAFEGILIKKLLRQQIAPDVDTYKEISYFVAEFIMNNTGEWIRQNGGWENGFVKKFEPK
Protocol: (§1) WT His-BFL-1ΔC, BCL-XLΔC (tagless), and GST-MCL-1ΔNΔC (1 μM each) were combined and incubated with 3 mM DTT in PBS for thirty minutes at room temperature. Mixtures were treated with vehicle or the indicated C-terminally biotinylated NOXA SAHB (1 μM) for four hours and were then added to 30 μL PBS-washed high-capacity streptavidin (SA) agarose beads (Thermo Fisher Pierce) and incubated with rotation at room temperature for two hours. The beads were then washed three times with NP-40 lysis buffer (1% NP-40, 50 mM Tris pH 8, 100 mM NaCl, 2.5 mM MgCl2) and three times with PBS. To elute bound protein, beads were boiled for ten minutes with 10% SDS containing 10 mg/mL biotin. After elution, samples were boiled with 3×LDS and 2M DTT for twenty minutes. Gel electrophoresis using a 12% Bis-Tris gel was conducted on inputs (2%) and eluates (5 μL) and gels were developed using the Pierce silver staining kit (Thermo Fisher).

[3] = target: T3, native BFL-1 (Homo sapiens, UniProt Q16548); assay: BFL-1 targeting in A375P lysates (streptavidin pulldown, BFL-1 western); type: binding; settings: biotinylated SAHB, compared to acetylated construct
T3 construct: endogenous in cells; host or cells: A375P melanoma cells (A10); U937 AML cells (A12), lysates
T3 sequence (Q16548 1-175): T1 sequence (Q16548 1-175)
Protocol: (§2) Cultured A375P and U937 cells were trypsinized or harvested, respectively, washed with PBS, and lysed by incubating with 1% CHAPS lysis buffer (1% CHAPS, 150 mM NaCl, 50 mM Tris pH 7.4, 100 μM DTT). The protein concentrations of the soluble fraction were measured using a BCA kit according to the manufacturer's instructions (Thermo Scientific). Lysate samples (1 mg) were incubated with vehicle or C-terminally biotinylated NOXA SAHBs (30 μM) overnight in 1% CHAPS lysis buffer at 4° C. Biotin capture was accomplished by incubating the mixture with high-capacity SA agarose (Thermo Scientific) for 2 hours at 4° C., followed by centrifugation and washing the pelleted beads three times with lysis buffer (1 mL). Bead-bound proteins were eluted by boiling in 10% SDS containing 10 mg/mL biotin for 10 minutes and then subjected to electrophoresis and western blotting using BFL-1 (Abcam, #125259) and MCL-1 (Rockland #600-401-394S) antibodies.

[4] = target: T4, MCL-1 (Homo sapiens, UniProt Q07820); assay: MCL-1 engagement in A375P lysates (streptavidin pulldown, MCL-1 western); type: binding; settings: biotinylated SAHB
T4 construct: endogenous protein in lysates from the A375P melanoma cell line; endogenous in cells; host or cells: A375P melanoma cells (lysate)
Protocol: as §2

[5] = target: T5, HA-BFL-1ΔC C4S/C19S / tBID (Homo sapiens, UniProt Q16548, C19S/C4S); assay: BFL-1/BH3 complex disruption: competition with tBID in 293T lysates; type: binding; settings: anti-HA immunoprecipitation
T5 construct: Recombinant anti-apoptotic BFL-1ΔC (aa 1-151) and its cysteine to serine mutants were cloned into PET17b; expressed in transfected cells; host or cells: 293T (lysate)
T5 sequence (Q16548 1-151 C4S/C19S): T2 sequence (Q16548 1-151) with C4S, C19S
Protocol: (§3) To evaluate the capacity of biotinylated SAHBs to compete with tBID for interactions with BFL-1 and MCL-1, 293T cells were transfected with either HA-BFL-1ΔC C4S/C19S or FLAG-MCL-1 in the p3XFLAG-CMV-10 vector (Sigma) as above. After 24 hr, cells were trypsinized, washed with PBS, lysed in 1% CHAPS buffer, and the supernatant collected for protein concentration determination by BCA kit. Lysate samples (0.5 mg) were incubated with 0.25 μM recombinant tBID (R&D Systems) and 5 μM biotinylated NOXA SAHBs for 6 h at RT. The mixtures were then subjected to HA or FLAG immunoprecipitation, followed by western analysis using 1:1000 dilutions of HA (Sigma Aldrich, #12CA5), FLAG (Sigma-Aldrich, F7425), and BID (Santa Cruz sc-11423) antibodies.

[6] = target: T6, FLAG-MCL-1 / tBID (Homo sapiens, UniProt Q07820); assay: MCL-1/tBID complex disruption in 293T lysates; type: binding; settings: FLAG immunoprecipitation
T6 construct: expressed in transfected cells; host or cells: 293T (lysate)
Protocol: as §3

[7] = target: T7, GST-MCL-1ΔNΔC (Homo sapiens, UniProt Q07820); assay: Streptavidin pulldown from recombinant protein mixture, MCL-1; type: binding; settings: equimolar mixture of recombinant MCL-1, BCL-XL, BFL-1 and biotinylated SAHB, silver stain
T7 construct: BCL-XLΔC (aa 1-212) and MCL-1ΔNΔC (aa 172-329) were cloned into the PGEX-4T-1; made in house; host or cells: Escherichia coli BL21(DE3)
Protocol: as §1

[8] = target: T8, BCL-XLΔC (tagless) (Homo sapiens, UniProt Q07817); assay: Streptavidin pulldown from recombinant protein mixture, BCL-XL; type: binding; settings: equimolar mixture of recombinant MCL-1, BCL-XL, BFL-1 and biotinylated SAHB, silver stain
T8 construct: Recombinant anti-apoptotic BCL-XLΔC (aa 1-212) and MCL-1ΔNΔC (aa 172-329); GST (N, cleaved yes); made in house; host or cells: Escherichia coli BL21(DE3)
Protocol: as §1

[9] = target: T9, BFL-1ΔC C4S/C19S/C55S / FITC-BID BH3 (Homo sapiens, UniProt Q16548, C19S/C4S/C55S); assay: Competitive fluorescence polarization binding assay, BFL-1ΔC C4S/C19S/C55S
T9 construct: Recombinant anti-apoptotic BFL-1ΔC (aa 1-151) and its cysteine to serine mutants were cloned into PET17b; hexahistidine (N); made in house; host or cells: Escherichia coli LOBSTR BL21(DE3)
T9 sequence (Q16548 1-151 C4S/C19S/C55S): T2 sequence (Q16548 1-151) with C4S, C19S, C55S
Protocol: (§4) Fluorescence polarization (FP) assays were performed as previously described (Pitter et al., 2008 (supra)). Briefly, direct binding curves were first generated by FITC-BID BH3 (25 nM) with serial dilutions of anti-apoptotic protein, and FP was measured at 5 min on a SpectraMax M5 microplate reader (Molecular Devices). For competition assays, a serial dilution of acetylated or warhead-bearing NOXA SAHB was added to the indicated recombinant protein at ˜EC75 concentration, as determined by the direct binding assay. FITC-BID BH3 (25 nM) was then added and fluorescence polarization was measured at equilibrium. IC50 values were calculated by nonlinear regression analysis of competitive binding curves using PRISM software (GraphPad).

[10] = target: T10, BCL-XLΔC / FITC-BID BH3 (Homo sapiens, UniProt Q07817); assay: Competitive fluorescence polarization binding assay, BCL-XLΔC
T10 construct: Recombinant anti-apoptotic BCL-XLΔC (aa 1-212) and MCL-1ΔNΔC (aa 172-329); GST (N, cleaved yes); made in house; host or cells: Escherichia coli BL21(DE3)
Protocol: as §4

[11] = tested on: U937 cells; assay: Cell viability (CellTiter-Glo) and CalcuSyn synergy, U937; settings: U937 cells (BFL-1-dependent)
Protocol: (§5) Cell viability and caspase-3/7 activation was measured using CellTiter-Glo and Caspase-Glo 3/7 chemiluminescence reagents (Promega), respectively, and luminescence was detected by a Spectramax M5 microplate reader. Synergy of drug interactions was calculated using the CalcuSyn software (Biosoft).

[12] = tested on: MV4;11 cells; assay: Cell viability (CellTiter-Glo) and CalcuSyn synergy, MV4;11
Protocol: as §5

T6 sequence (Q07820 whole entry): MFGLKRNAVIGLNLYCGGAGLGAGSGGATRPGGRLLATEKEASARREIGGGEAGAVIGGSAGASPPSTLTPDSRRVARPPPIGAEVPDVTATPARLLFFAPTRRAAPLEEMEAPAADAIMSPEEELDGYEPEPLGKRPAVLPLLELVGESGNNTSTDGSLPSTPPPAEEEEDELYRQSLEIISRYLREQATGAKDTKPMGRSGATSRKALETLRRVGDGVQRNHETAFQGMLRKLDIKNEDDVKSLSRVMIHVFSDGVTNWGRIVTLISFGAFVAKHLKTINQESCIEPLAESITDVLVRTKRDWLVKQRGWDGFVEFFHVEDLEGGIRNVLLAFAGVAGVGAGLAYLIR
T7 sequence (Q07820 172-329, stated change not applied): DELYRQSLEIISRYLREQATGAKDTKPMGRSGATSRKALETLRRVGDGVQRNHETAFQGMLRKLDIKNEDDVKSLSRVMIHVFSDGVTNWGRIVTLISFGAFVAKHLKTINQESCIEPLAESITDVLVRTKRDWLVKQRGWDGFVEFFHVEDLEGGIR
T10 sequence (Q07817 1-212, stated change not applied): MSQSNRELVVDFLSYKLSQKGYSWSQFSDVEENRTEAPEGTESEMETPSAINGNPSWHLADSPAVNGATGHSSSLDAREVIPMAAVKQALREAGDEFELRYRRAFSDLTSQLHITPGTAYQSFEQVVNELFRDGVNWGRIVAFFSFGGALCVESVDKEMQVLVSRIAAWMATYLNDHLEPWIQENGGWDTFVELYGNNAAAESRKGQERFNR
T8 sequence (Q07817 1-212, stated change not applied): as above

| Compound | BFL-1 binding / pull down [2] | MCL-1 engagement [4] | competition with tBID for HA-BFL-1ΔC C4S/C19S interaction [5] | dissociation of FLAG-MCL-1/tBID interaction [6] | further results |
| --- | --- | --- | --- | --- | --- |
| JAT8LRRAGDXLNFRQ [D-NA-NOXA-15 F32A] | striking competitive advantage for BFL-1 targeting over its acetylated counterpart | approximately equivalent binding to MCL-1 | near total inhibition of tBID co-immunoprecipitation | neither D-NA- nor Ac-NOXA15 F32A is able to dissociate the interaction | covalent crosslinking to full-length BFL-1 [1]: covalent crosslinking to recombinant and expressed full-length BFL-1; BFL-1 binding / pull down ([2]; listed as D-NA-NOXA-15 F32A SAHB): notably more BFL-1 engagement; targeting of native BFL-1 [3]: enhanced targeting of native BFL-1 |
| AT8LRRAGDXLNFRQ (AT[R8]LRRAGD[S5]LNFRQ; staple 3-10; not fully specified (N-terminus); printed as AT8LRRAGDXLNFRQ) [Ac-NOXA-15 F32A, acetylated counterpart of D-NA-NOXA-15 F32A] | no binding | approximately equivalent binding to MCL-1 | incapable of competing with tBID for HA-BFL-1 binding | neither D-NA- nor Ac-NOXA15 F32A is able to dissociate the interaction | MCL-1 binding / pull down [7]: detectable but minimal direct interaction; BCL-XL binding / pull down [8]: no binding |
| AT8LREFGDXLNFRQ (AT[R8]LREFGD[S5]LNFRQ; staple 3-10 (inferred); not fully specified (N-terminus); printed as AT8LREFGDXLNFRQ) [Ac-NOXA-15 R31E, acetylated counterpart of D-NA-NOXA-15 R31E] | – | approximately equivalent binding to MCL-1 | – | neither D-NA- nor Ac-NOXA15 R31E is able to dissociate the interaction | competition for FITC-BID BH3 binding to BFL-1ΔC C4S/C19S/C55S [9]: neither D-NA- nor Ac-NOXA15 R31E competes; competition for FITC-BID BH3 binding to BCL-XLΔC [10]: neither Ac- nor D-NA-NOXA-15 R31E is able to compete |
| Cc1c(-c2c(-c3ccc(F)o3)sc3ncnc(O[C@H](Cc4ccccc4OCc4ccnn4CC(F)(F)F)C(=O)O)c23)ccc(OCCN2CCN(C)CC2)c1Cl [S63845] | – | – | – | – | cytotoxicity, single agent [11]: no activity; cytotoxic synergy upon co-treatment ([12]; MV4;11 cells (not dependent on BFL-1)): synergy in combination with ATM inhibition; cytotoxicity, single agent ([12]; MV4;11 cells (not dependent on BFL-1, dependent on MCL-1)): single agent activity |
| *AT8LRRFGDXLNFRQ [Ac-NOXA SAHB, acetyl-capped i, i+7-stapled NOXA BH3 peptide (aa 26-40)] | little to no interaction with BFL-1 | – | – | – | – |
